From patent US20260193323

Legend:
LEKTI domains 10-15 = target: T1, LEKTI domains 10-15
T1 chain: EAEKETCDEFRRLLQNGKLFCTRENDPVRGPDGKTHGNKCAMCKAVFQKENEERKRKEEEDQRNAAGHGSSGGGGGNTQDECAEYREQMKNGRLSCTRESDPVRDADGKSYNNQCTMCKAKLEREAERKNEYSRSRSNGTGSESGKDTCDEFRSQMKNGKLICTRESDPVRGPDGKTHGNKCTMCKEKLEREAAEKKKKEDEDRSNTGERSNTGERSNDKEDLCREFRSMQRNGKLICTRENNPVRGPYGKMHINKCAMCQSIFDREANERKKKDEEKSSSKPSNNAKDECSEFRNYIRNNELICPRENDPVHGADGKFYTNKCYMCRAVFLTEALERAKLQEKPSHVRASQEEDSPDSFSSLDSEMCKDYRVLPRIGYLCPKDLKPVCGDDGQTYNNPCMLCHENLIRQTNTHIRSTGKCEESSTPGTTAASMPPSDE

[1] = target: T2, recombinantly produced LEKTI Domain 6
T2 chain: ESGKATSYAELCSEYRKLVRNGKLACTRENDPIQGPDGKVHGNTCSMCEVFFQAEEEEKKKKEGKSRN

B1: KLK7 (protein)
chain: IIDGAPCARGSHPWQVALLSGNQLHCGGVLVNERWVLTAAHCKMNEYTVHLGSDTLGDRRAQRIKASKSFRHPGYSTQTHVNDLMLVKLNSQARLSSMVKKVRLPSRCEPPGTTCTVSGWGTTTSPDVTFPSDLMCVDVKLISPQDCTKVYKDLLENSMLCAGIPDSKKNACNGDSGGPLVCRGTLQGLVSWGTFPCGQPNDPGVYTQVCKFTKWINDTMKKHR
KLK7 activity (Suc-Arg-Pro-Tyr-p-Nitro-Anilide substrate, 405 nm) (LEKTI domains 10-15): recombinantly produced LEKTI Domain 6 inhibits KLK7 in vitro about as well as LEKTI domains 10-15 | KLK7 activity (Suc-Arg-Pro-Tyr-p-Nitro-Anilide substrate, 405 nm) [1]: recombinantly produced LEKTI Domain 6 inhibits KLK7 in vitro about as well as LEKTI domains 10-15
